Source: paper PMC11369174, “Proteome-scale characterisation of motif-based interactome rewiring by disease mutations” (Molecular Systems Biology, 2024)
Blank lines part the entries; values can stand above or below the binder they belong to.

Tests used:
MAP1LC3A ATG8 (human) = assay: fluorescence polarisation; displacement: unlabelled peptide titrated onto a complex of FITC-labelled peptide (10 nM) and protein domain (1-2x KD); 50 mM sodium phosphate buffer pH 7.4 (CASK: plus 100 mM NaCl); KD calculated from IC50; technical triplets
[1] = target: importin subunit α-3 (KPNA4) ARM domain (human); assay: fluorescence polarisation; displacement as a1, with a FITC-labelled probe sampling the major pocket of the ARM domain (KPNA4, KPNA7)
importin subunit α-3 (KPNA4) ARM domain (human), sequence (O00629 whole entry, the tested form may be a part): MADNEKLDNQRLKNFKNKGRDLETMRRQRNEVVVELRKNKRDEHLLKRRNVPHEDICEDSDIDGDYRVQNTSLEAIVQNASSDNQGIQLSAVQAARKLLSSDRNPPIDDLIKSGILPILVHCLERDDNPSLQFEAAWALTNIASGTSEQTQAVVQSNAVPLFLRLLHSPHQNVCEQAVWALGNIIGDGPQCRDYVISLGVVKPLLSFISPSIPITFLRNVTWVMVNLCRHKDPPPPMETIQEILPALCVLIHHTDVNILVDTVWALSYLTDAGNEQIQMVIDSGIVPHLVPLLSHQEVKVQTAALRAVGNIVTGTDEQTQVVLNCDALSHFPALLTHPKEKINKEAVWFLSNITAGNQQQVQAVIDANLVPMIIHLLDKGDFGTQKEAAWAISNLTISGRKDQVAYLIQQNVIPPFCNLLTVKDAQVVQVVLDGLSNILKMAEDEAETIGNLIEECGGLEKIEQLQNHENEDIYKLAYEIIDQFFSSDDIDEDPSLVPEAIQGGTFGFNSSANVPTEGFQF

USP7 MATH/ TRAF (human) = assay: fluorescence polarisation; displacement: unlabelled peptide titrated onto a complex of FITC-labelled peptide (10 nM) and protein domain (1-2x KD); 50 mM sodium phosphate buffer pH 7.4 (CASK: plus 100 mM NaCl); KD calculated from IC50; technical triplets
GABARAPL1 ATG8 (human) = assay: as above
[2] = target: E3 ubiquitin-protein ligase NEDD4 (NEDD4) WW2 domain, GST-tagged (human); assay: as above
E3 ubiquitin-protein ligase NEDD4 (NEDD4) WW2 domain, GST-tagged (human), sequence (P46934 whole entry, the tested form may be a part): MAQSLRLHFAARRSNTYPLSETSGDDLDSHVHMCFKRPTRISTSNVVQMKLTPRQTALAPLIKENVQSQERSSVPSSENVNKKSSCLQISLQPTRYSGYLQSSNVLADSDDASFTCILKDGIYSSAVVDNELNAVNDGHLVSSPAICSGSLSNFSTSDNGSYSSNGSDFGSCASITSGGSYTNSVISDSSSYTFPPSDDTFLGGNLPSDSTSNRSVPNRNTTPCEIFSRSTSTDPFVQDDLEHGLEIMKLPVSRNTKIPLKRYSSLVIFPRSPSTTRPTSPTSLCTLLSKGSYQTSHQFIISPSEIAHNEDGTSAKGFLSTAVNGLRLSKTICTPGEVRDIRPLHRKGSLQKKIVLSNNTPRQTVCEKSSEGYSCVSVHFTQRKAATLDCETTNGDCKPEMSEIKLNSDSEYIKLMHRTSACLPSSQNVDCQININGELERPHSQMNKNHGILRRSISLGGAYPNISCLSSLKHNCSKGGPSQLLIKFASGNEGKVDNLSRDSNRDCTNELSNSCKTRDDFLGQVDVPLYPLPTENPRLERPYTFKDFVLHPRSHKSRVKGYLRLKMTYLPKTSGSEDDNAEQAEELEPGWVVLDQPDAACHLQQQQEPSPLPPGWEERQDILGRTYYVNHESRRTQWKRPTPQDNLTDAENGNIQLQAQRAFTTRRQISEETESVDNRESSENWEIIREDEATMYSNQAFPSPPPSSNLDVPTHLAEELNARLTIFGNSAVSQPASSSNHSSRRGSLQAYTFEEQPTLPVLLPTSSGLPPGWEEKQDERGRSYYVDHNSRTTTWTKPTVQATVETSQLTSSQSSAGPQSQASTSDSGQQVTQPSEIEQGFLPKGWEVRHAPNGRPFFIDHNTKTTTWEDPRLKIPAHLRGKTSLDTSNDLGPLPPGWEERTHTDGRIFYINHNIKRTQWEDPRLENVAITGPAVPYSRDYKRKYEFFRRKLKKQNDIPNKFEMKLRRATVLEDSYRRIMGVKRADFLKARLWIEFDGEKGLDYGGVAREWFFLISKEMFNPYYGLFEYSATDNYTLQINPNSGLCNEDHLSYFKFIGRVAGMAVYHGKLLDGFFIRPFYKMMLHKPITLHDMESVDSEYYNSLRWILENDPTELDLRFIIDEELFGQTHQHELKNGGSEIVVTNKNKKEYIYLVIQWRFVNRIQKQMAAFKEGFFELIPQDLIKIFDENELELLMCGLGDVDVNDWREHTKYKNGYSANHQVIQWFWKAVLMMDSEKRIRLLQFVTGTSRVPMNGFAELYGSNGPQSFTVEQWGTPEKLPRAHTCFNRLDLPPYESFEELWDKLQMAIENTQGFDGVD

[3] = target: importin subunit α-3 (KPNA4) ARM domain (human); assay: fluorescence polarisation; displacement as a1, with a FITC-labelled probe sampling the minor pocket of the KPNA4 ARM domain
FITC-STK11_mut = assay: fluorescence polarisation; saturation binding: dilution series of the protein domain added to 10 nM FITC-labelled peptide; 50 mM sodium phosphate pH 7.4, 0.05% Tween (protein dialysed in 50 mM sodium phosphate with 1 mM DTT; CASK kinase domain with 100 mM NaCl in addition); quadratic fit; technical triplets

- Kd (MAP1LC3A ATG8 (human)): 580 µM
B1: KRT1 209-224 L214P peptide (peptide)
peptide: QTKWEPLQQVDTSTRT

- KD, major pocket [1]: 860 µM
B2: CREBBP 5-19 K13E peptide (peptide)
peptide: YLLDGPPNPERAKLSS

- Kd (USP7 MATH/ TRAF (human)): 4.7 µM
B3: CHK2 38-53 Q51K peptide (peptide)
peptide: YISSSSTSTMPNSSKSS

- Kd (GABARAPL1 ATG8 (human)): < 0.3 µM
B4: BUB1_(486-501) S492F peptide (peptide)
peptide: DKDEWQFLDQNEDAFE

- Kd (MAP1LC3A ATG8 (human)): 55 µM
B5: KRT1 209-224 wild-type peptide (peptide)
peptide: QTKWELLQQVDTSTRT

- Kd [2]: 603 µM
B6: SCNN1B_(611-626) P618R peptide (peptide)
peptide: PIPGTPPRNYDSLRLQ

- Kd [2]: 80 µM
B7: SCNN1B_(611-626) P616R peptide (peptide)
peptide: PIPGTRPPNYDSLRLQ

- Kd [2]: 39 µM
B8: SCNN1B_(611-626) wild-type peptide (peptide)
peptide: PIPGTPPPNYDSLRLQ

- Kd (USP7 MATH/ TRAF (human)): 3.1 µM
B9: CHK2 38-53 wild-type peptide (peptide)
peptide: YISSSSTSTMPNSSQSS

- KD, minor pocket [3]: 395 µM
B10: ZNF526_(152-167) K160T peptide (peptide)
peptide: PELWVAHRTAQHLSAT

- Kd (FITC-STK11_mut): 14.1 µM
B11: ADP-ribosylation factor-binding protein GGA1 (GGA1) VHS domain (domain or fragment)
chain: ATNPLNKELDWASINGFCEQLNEDFEGPPLATRLLAHKIQSPQEWEAIQALTVLETCMKSCGKRFHDEVGKFRFLNELIKVVSPKYLGSRTSEKVKNKILELLYSWTVGLPEEVKIAEAYQMLKKQGIVKS

- Kd (GABARAPL1 ATG8 (human)): 5.5 µM
B12: BUB1_(486-501) wild-type peptide (peptide)
peptide: DKDEWQSLDQNEDAFE
